Where no end group is shown, it is not given here. The star is where a group is joined. Biotin = O=C1N[C@H]2[C@H](CS[C@H]2CCCCC(=O)*)N1; 22‑Å spacer = not defined here

Results on 4 molecules are retold here after article PMC2191090 (The Journal of Experimental Medicine, 1993).

The target in test [1] is HLA-DR4 (DRB1*0401) on Priess cells (human (endogenous in Priess)). The test is described as follows: flow cytometry on cells. On the technique in general: In flow cytometry, cells or beads pass a laser one at a time.
For test [2], the target named is HLA-DR7 (DRB1*0701) on Mann cells (human (endogenous in Mann)). The test is described as follows: flow cytometry on cells.
The subject of the next test is surface-expressed HLA-DR. The test is described as follows: Specificity of peptide binding to surface-expressed HLA-DR. Also noted: species or system human. Particulars: amino-terminal biotin via 22-A spacer.
Test [3] deals with HLA-DR1 (DRB1*0101) on LG-2 cells (human (endogenous in LG-2)). The test is described as follows: flow cytometry on cells.
Test [4] concerns the target HLA-DR8 (DRB1*0801) on 23.1 cells (human (endogenous in 23.1)). The test is described as follows: flow cytometry on cells.
Test [5] addresses HLA-DR2 (DRB1*1501/DRB5*0101) on MST cells (human (endogenous in MST)). The test is described as follows: flow cytometry on cells.
For test [6], the target named is HLA-DR3 (DRB1*0301) on WT-20 cells (human (endogenous in WT-20)). The test is described as follows: flow cytometry on cells.

With “biotinylated synthetic Ig kappa chain C region peptide 188-202”, the relative mean log fluorescence in test [1] was 189; in test [2] it was 171.

Consider “VGSDWRFLRGYHQYA [HLA-A2-1ike peptide 103-117]”, for which, in the test on surface-expressed HLA-DR, the “effect of biotinylation on binding (in words)” value is reported as “interfered with the normal mode of binding”.

B1: biotinylated synthetic HLA-DR alpha chain peptide 182-198 (peptide)
peptide: {Biotin-22‑Å spacer}-APSPLPETTENVVCALG
modifications: reading uncertain
In the case of B1, the relative mean log fluorescence in test [3] stood at 345; in test [4], 172; in test [1], 189; in test [5], 148; in test [6], 176.

B2: biotinylated synthetic invariant chain (Ii) peptide 97-120 (peptide)
peptide: {Biotin-22‑Å spacer}-LPKPPKPVSKMRMATPLLMQALPM
modifications: reading uncertain
Take B2: the relative mean log fluorescence stood at 215 in test [1] and 288 in test [2].
